Results reported in the supplement of paper PMC10065799, “High-throughput profiling of sequence recognition by tyrosine kinases and SH2 domains using bacterial peptide display” (eLife, 2023).

Key:
AncSZ = test: phosphorylation enrichment, bacterial display (enrichment ratio); higher = better substrate or ligand; peptides without Tyr show the background
EPHB1 = EPHB1 (UniProt P54762); test: as above
EPHB2 = EPHB2 (UniProt P29323); test: as above
FGFR1 = FGFR1 (UniProt P11362); test: as above
FGFR3 = FGFR3 (UniProt P22607); test: as above
Fer (mouse) = test: as above
Fes = Fes (UniProt P07332); test: as above
Fyn = Fyn (UniProt P06241); test: as above
Hck = Hck (UniProt P08631); test: as above
Jak2 = Jak2 (UniProt O60674); test: as above
MERTK = MERTK (UniProt Q12866); test: as above
c-Abl (mouse) = test: as above
c-Src = test: as above
Grb2 SH2 = Grb2 SH2 (UniProt P62993); test: SH2 binding enrichment of the phosphorylated peptide, bacterial display (enrichment ratio); higher = better substrate or ligand; peptides without Tyr show the background
SHP2-C SH2 = test: as above
c-Src SH2 = test: as above
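For SH2 binding enrichment of the phosphorylated peptide, bacterial display in this document: peptide library displayed on the E. coli surface as eCPX fusions, selected cells deep-sequenced, score is each peptide's frequency after selection divided by its frequency in the input.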
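For phosphorylation enrichment, bacterial display in this document: 11-residue human phosphosite peptides and single-mutation variants displayed on the E. coli surface, counted by deep sequencing, each peptide's frequency after selection divided by its frequency in the unselected input library; frequency after pTyr selection over input frequency; kinase dosed for 20-30% of maximal phosphorylation in three min.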

FGFR3, sequence (P22607 whole entry, looked up): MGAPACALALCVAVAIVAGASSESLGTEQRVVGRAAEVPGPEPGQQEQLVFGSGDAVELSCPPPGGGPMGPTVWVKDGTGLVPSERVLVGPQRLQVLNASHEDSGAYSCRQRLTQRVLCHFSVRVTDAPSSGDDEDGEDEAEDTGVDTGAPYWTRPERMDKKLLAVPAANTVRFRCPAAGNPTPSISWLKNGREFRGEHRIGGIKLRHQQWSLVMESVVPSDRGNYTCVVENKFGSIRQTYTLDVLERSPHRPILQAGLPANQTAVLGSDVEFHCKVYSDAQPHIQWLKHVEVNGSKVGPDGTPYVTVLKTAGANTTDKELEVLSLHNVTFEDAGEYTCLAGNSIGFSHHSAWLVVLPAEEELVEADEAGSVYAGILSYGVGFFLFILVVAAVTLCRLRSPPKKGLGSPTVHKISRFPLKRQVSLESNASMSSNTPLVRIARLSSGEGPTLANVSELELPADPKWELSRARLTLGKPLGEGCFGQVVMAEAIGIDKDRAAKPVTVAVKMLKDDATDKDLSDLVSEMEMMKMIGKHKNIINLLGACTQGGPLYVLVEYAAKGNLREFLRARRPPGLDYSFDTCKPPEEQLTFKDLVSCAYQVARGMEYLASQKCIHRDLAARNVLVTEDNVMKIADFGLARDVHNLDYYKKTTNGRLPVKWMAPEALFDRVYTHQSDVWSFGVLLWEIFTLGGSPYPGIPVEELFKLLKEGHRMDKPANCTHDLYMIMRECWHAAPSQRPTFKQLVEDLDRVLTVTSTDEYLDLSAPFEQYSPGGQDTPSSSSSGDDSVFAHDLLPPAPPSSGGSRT
Fyn, sequence (P06241 whole entry, looked up): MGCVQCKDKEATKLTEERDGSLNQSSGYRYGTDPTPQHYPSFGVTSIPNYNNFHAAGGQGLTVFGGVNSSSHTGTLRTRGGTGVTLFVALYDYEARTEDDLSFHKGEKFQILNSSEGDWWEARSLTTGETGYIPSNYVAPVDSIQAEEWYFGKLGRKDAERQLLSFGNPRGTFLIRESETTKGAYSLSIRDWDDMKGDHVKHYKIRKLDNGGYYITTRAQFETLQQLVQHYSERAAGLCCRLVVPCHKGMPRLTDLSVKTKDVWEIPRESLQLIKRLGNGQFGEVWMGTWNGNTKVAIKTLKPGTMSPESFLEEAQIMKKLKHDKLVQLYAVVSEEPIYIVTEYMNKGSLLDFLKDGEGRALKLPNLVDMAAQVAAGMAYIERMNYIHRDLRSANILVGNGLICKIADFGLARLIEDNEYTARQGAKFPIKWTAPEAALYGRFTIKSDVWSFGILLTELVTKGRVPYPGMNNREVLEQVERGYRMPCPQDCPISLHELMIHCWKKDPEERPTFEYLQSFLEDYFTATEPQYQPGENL
FGFR1, sequence (P11362 whole entry, looked up): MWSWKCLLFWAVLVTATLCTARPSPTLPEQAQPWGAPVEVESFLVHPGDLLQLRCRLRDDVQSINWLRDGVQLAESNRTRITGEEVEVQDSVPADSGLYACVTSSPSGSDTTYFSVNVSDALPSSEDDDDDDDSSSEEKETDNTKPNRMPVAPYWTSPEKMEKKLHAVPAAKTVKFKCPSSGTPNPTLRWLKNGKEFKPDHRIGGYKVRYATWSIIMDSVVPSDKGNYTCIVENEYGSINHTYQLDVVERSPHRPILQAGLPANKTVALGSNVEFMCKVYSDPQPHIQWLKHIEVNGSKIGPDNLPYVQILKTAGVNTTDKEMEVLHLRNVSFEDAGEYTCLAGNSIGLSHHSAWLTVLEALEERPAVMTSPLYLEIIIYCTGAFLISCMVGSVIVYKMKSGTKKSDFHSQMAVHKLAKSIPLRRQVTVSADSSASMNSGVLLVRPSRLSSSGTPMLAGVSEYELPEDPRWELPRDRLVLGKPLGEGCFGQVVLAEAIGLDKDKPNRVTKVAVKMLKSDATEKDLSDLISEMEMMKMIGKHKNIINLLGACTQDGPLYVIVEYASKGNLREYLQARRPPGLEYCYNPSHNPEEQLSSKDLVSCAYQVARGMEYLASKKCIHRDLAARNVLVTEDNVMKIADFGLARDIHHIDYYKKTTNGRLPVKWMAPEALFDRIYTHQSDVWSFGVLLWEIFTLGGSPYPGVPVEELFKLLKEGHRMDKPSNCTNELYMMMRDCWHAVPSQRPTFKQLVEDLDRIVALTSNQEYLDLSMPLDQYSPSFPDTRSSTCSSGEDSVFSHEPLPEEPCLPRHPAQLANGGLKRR
EPHB2, sequence (P29323 whole entry, looked up): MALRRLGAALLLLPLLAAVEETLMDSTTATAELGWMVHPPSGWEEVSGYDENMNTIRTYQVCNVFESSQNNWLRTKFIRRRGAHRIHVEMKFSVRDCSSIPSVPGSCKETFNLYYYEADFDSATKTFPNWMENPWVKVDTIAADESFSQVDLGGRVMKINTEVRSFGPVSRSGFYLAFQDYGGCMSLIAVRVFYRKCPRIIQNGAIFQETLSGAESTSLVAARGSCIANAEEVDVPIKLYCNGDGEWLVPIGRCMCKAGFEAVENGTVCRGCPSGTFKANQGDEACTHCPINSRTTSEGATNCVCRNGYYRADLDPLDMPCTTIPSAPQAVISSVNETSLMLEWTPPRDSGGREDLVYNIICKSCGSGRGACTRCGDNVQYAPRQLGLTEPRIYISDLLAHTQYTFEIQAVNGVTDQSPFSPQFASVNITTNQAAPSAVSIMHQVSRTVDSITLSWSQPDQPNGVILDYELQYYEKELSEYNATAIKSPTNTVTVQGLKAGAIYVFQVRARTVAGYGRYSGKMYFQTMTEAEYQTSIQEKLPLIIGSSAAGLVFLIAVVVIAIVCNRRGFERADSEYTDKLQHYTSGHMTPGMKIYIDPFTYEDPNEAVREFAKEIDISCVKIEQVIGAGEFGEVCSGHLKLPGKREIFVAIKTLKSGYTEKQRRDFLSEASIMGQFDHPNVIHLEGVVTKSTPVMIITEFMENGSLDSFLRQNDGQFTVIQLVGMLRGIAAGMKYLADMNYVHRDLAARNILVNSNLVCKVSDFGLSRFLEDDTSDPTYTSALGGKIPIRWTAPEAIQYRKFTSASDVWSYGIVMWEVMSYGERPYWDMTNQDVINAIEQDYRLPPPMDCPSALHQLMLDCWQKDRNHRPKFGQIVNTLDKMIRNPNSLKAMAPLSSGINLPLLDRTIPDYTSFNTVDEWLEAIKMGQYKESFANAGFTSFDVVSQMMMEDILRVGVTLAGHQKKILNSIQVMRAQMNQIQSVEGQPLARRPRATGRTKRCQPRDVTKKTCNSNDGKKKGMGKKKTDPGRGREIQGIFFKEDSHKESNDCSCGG
Hck, sequence (P08631 whole entry, looked up): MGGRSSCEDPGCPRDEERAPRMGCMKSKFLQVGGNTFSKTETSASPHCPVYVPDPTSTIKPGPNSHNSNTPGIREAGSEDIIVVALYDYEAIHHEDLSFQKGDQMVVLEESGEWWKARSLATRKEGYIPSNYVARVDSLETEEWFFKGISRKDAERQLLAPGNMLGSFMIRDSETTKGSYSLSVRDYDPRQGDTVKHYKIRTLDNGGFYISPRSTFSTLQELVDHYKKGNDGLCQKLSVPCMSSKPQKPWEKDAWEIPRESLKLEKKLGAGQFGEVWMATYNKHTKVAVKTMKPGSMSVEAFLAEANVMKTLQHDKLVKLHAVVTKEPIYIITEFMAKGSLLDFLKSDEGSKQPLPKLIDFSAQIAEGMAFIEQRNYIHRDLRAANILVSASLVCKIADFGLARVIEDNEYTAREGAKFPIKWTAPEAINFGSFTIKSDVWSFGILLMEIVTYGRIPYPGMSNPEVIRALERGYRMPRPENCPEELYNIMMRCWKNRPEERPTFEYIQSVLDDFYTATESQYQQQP
EPHB1, sequence (P54762 whole entry, looked up): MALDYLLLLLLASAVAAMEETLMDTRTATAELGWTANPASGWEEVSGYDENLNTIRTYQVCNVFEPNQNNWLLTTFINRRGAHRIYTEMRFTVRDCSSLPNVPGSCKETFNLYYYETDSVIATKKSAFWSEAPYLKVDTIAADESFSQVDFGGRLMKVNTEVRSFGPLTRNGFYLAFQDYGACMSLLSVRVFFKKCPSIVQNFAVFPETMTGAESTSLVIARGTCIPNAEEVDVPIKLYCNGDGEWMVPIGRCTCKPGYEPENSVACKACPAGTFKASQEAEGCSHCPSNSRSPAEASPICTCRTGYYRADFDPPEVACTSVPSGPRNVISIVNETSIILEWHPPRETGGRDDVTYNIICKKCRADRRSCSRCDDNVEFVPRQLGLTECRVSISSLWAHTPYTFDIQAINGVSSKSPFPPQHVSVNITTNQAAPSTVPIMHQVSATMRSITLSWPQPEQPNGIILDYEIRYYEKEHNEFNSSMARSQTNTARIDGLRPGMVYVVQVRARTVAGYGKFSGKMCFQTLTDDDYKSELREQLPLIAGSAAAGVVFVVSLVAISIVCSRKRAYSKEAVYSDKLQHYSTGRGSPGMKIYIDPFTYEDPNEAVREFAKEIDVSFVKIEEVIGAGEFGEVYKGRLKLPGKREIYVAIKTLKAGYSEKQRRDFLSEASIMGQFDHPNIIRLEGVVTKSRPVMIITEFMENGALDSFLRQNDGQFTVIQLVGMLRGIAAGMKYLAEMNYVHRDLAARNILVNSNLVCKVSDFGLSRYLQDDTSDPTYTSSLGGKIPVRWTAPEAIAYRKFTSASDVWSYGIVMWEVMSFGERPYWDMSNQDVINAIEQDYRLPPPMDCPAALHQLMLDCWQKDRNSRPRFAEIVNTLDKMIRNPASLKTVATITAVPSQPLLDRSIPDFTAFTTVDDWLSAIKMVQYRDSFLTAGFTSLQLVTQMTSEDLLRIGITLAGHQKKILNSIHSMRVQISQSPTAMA

| SH2 binding enrichment (Grb2 SH2) | SH2 binding enrichment (SHP2-C SH2) | SH2 binding enrichment (c-Src SH2) | Sequence | phosphorylation enrichment (AncSZ) | phosphorylation enrichment (EPHB1) | phosphorylation enrichment (EPHB2) | phosphorylation enrichment (FGFR1) | phosphorylation enrichment (FGFR3) | phosphorylation enrichment (Fer (mouse)) | phosphorylation enrichment (Fes) | phosphorylation enrichment (Fyn) | phosphorylation enrichment (Hck) | phosphorylation enrichment (Jak2) | phosphorylation enrichment (MERTK) | phosphorylation enrichment (c-Abl (mouse)) | phosphorylation enrichment (c-Src) |
| --- | --- | --- | --- | --- | --- | --- | --- | --- | --- | --- | --- | --- | --- | --- | --- | --- |
| 0.785 | 0.805 | 0.56 | DAICFYRMENA [NPHS2_Y195_YF] | 1.14 | 0.645 | 0.544 | 0.624 | 0.85 | 0.592 | 1.47 | 0.726 | 0.624 | 1.19 | 0.482 | 0.914 | 2.96 |
| 0.874 | 0.59 | 0.419 | DRLASYLDKAR [KRT14_Y129_V133A] | 0.586 | 0.297 | 0.324 | 0.37 | 0.45 | 0.403 | 0.634 | 0.373 | 0.342 | 0.627 | 0.378 | 0.914 | 0.349 |
| 1.05 | 1.17 | 0.756 | YPKVRYHWLVL [APTX_Y214_A212V] | 1 | 0.652 | 0.758 | 0.681 | 1.03 | 0.506 | 1.35 | 0.531 | 0.547 | 1.06 | 0.448 | 1.15 | 0.474 |
| 0.881 | 0.737 | 0.538 | INITIYGKTFC [EFHC1_Y177_R182C] | 1.22 | 0.656 | 0.684 | 0.581 | 0.909 | 0.617 | 1.48 | 0.532 | 0.505 | 1.38 | 0.548 | 0.982 | 0.597 |
| 0.64 | 0.544 | 0.381 | DGTVHYVDEKG [IFT140_Y216] | 1.02 | 0.666 | 0.682 | 0.592 | 0.83 | 0.593 | 1.23 | 0.671 | 0.586 | 0.832 | 0.443 | 0.653 | 0.376 |
| 1.16 | 0.702 | 1.84 | NYYDLYGGEKF [PTPN11_Y66_D61N] | 1.48 | 10.6 | 12.1 | 13.4 | 11.7 | 2.32 | 1.03 | 5.82 | 5.52 | 1.97 | 7.49 | 0.725 | 4.47 |
| 0.809 | 0.854 | 0.606 | VGRVGYVSGWG [HP_Y280] | 0.781 | 0.4 | 0.514 | 0.427 | 0.56 | 0.395 | 0.792 | 0.456 | 0.415 | 0.821 | 0.406 | 0.807 | 0.507 |
| 0.902 | 0.534 | 0.53 | RRIHSYRGYLW [VHL_Y112_H115Y] | 0.646 | 0.614 | 0.605 | 0.581 | 0.915 | 0.676 | 0.905 | 0.551 | 0.64 | 0.717 | 0.488 | 0.375 | 0.517 |
| 0.862 | 0.633 | 0.76 | SVGGCYEQLFV [MC4R_Y41_D37V] | 1.51 | 1.02 | 0.661 | 0.791 | 0.972 | 7.02 | 1.42 | 0.982 | 1.46 | 1.14 | 0.826 | 1.22 | 1.24 |
| 0.878 | 0.564 | 0.528 | AESPEYVHMFT [FAM111A_Y511_YF] | 1.32 | 0.579 | 0.598 | 1.69 | 1.58 | 0.542 | 1.12 | 0.502 | 0.629 | 1.11 | 0.407 | 0.703 | 0.443 |
| 0.587 | 0.582 | 1 | DYTEAYNSKIK [CLK1_Y305_P307S] | 0.897 | 0.446 | 0.449 | 0.514 | 0.585 | 0.377 | 0.969 | 0.339 | 0.382 | 0.965 | 0.454 | 0.584 | 0.492 |
| 0.566 | 0.501 | 1.39 | EFGFRYELVQY [UGGT2_Y1289_Y1285F] | 1.11 | 0.573 | 0.507 | 0.512 | 0.617 | 0.611 | 1.14 | 0.329 | 0.429 | 1.05 | 0.338 | 0.627 | 0.393 |
| 1.01 | 0.75 | 0.489 | MPLTEYLKRIK [CNGB3_Y200] | 0.621 | 0.266 | 0.365 | 0.381 | 0.462 | 0.345 | 0.616 | 0.34 | 0.365 | 0.613 | 0.379 | 0.525 | 0.325 |
| 0.843 | 0.782 | 0.657 | FRIGPYQPSVP [MATR3_Y784_N787S_YF] | 0.712 | 0.604 | 0.543 | 0.517 | 0.616 | 0.5 | 0.868 | 0.453 | 0.537 | 0.662 | 0.412 | 0.536 | 0.478 |
